T1: human CD112R antigen protein huCD112R-His (Acro Biosysterm, PVG-H52H4) (human, UniProt Q6DKI7 41-171)
T1 construct: purchased; also called human antigen protein; not shown: His tag
T1 sequence (looked up): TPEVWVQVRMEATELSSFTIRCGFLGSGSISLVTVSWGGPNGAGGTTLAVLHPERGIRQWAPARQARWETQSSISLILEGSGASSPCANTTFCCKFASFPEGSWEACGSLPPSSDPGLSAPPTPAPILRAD

T2: monkey antigen protein (monkey CD112R, Uniprot ID: A0A2K5WVV8) (monkey, UniProt A0A2K5WVV8 41-171)
T2 sequence: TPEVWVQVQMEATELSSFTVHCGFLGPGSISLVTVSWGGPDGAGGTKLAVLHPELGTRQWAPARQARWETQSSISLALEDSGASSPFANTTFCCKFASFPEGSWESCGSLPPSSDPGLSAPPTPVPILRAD

B1: C101 (antibody, human IgG1, kappa, V domains shown)
VH: EVQLQQSGPELVKPGSSVKISCEASGFTFADYNVDWVKQSHGKSLEWIGAINPNDGGTSYNQKFEGKATLTVDKSSTTAYMELRSLTSEDSAVYYCARWVNNDWYFDVWGTGTTVTVSS
VL: DIVMTQSQKFMSTSVGDRVSITCKASQNVRSAVDWYQQKPGQSPKTLIHSASNRHTGVPDRFTGSGSGTDFTLTISNIQSEDLADYFCLQHWNYPYTFGGGTKLEVKR
B2: C105 (antibody, human IgG1, kappa, V domains shown)
VH: EVQLQQSGPELVKPGSSMKISCKASGYTFTDYSMDWVKQSHGKSLEWIGAINPNNGGTSYNQKFKDKATLTVDRSSSTAYMELRSLTSEDSAVYYCARWDSDYWYFDVWATGTTVTVSS
VL: B1 VL with S31T, T46A, H49Y, I78V, V106I
B3: C115 (antibody, human IgG1, kappa, V domains shown)
VH: EVQLQQSGAELVKPGASVKLSCTASGFNIEDTYIHWVKRRPEQGLEWIGGIDPAIGNTLYASKFQDMATITADTSSSTAYMQLSSLTSGDTAVYYCARERVYSNTLYYAMDYWGQGTSVTVSS
VL: DIVLTQSPASLVVSLGQRATISCRASKSVSISGYSYMHWYQQKPGQPPKLLIYLASNLESGVPARFSGSGSGTDFTLNIHPVEAEDAATYYCQHSRELPPTFGGGTNLEIKR
B4: C120 (antibody, human IgG1, kappa, V domains shown)
VH: EVQLQQSGPEVVKPGASVKISCKASGNTLTDYFINWVKQSHGKNLEWIGDINPDNGAGNYNQKFKGKATLTVDKSSGTAFMGLRSLTSEDSAVYYCATLYFDYWGQGTTLTVSS
VL: DIVMTQSPSSLSVSTGEKVTMSCRSSQSLLNSGNQKNYLAWYQQKPGQPPKLLIYGASTRESGVPDRFTGSGSGTDFTLTISSVQAEDLAIYYCQNAHTSPYTFGGGTRLEIKR
B5: C111 (antibody, human IgG1, kappa, V domains shown)
VH: QVQLQQSGPELARPGASVKLSCKASGYTLTSHGISWVKQRTGQGLEWIGEIYPGSESPYYSEKFKGKATLTADKSSNIAYMQLSSLTSEDSAVYFCARSDYSDYWAMDYWGQGTSVTVSS
VL: B1 VL with F10C, D34A, H49Y, S50L, S76T, I78V, Y96W, K103E, V106I
B6: C113 (antibody, human IgG1, kappa, V domains shown)
VH: EVQLQQSGPELVKPGSSVKISCKASGYTFTDYNLDWMKQSHGSSLEWIGAMSPNNGATSYNQKFKGKATLTVDKSSSTAYMELRSLTSEDSAVYYCARWDSNSWYFDVWGTGTTVTVSS
VL: B1 VL with N28I, S31T, P40S, T46A, H49Y, N53T, S76D, I78V, D85E, V106I
B7: C146 (antibody, human IgG1, kappa, V domains shown)
VH: B1 VH with F27Y, A79V
VL: B1 VL with N53S
B8: C9 (antibody, human IgG1, kappa, V domains shown)
VH: EVQLQQSGAELVKPGASVKLSCTASGFNIKDIYMHWLKQRPEQGLEWIGRIDPTNGNSEYDPRFRGKATLTADTSSNIAYLQLSSLTSEDTAVYYCARFGIYPYFDYWGQGTTLTVSS
VL: GIVMTQTPKFLLVSAGDRVTITCKASQSVNKAVVWYQQKPGQSPKLLISYASNRYTGVPDRFTGSGYGTDFTFSISTVQAEDLAVYFCQQDYSSPWTFGGGTKLEIKR
B9: C21 (antibody, human IgG1, kappa, V domains shown)
VH: B8 VH with I51V, R65Q
VL: B8 VL with G1S, S49N
B10: C136 (antibody, human IgG1, kappa, V domains shown)
VH: DVQLVESGGGLVKPGGSLKLSCAASGFSFSENYMYWVRQTPEKRLEWVATISDGASYTYYPDNVKGRFTISRDTAKNNLYLQMSHLKSEDTAMYYCTRDELIAPFAYWGQGTLVTVSA
VL: DIVMTQSHKFMSTSVGDRVSITCKASQDVGTAVAWFQQKPGQSPKLLIYWASTRHTGVPDRFTGSGSGTDFTLTISNVQSEDLADYFCQQYNSYPWTFGGGTKLEIKR
B11: C28 (antibody, human IgG1, kappa, V domains shown)
VH: QIQLQQSGPELVKPGPSVKISCKASGYTFTDYYINWVKQRPGQGLEWIGWIYPGSGYTKYNEKLKGRATLTVDTSSSTAYMQLSSLTSEDSAVYFCARDSFYAMDYWGQGTSVTVSS
VL: DIVMTQSQKFMSTTVGDRVSITCKASQNVGTAVAWYQQKPGQSPKLLIYSASNRYTGVPDRFTGSGSGTDFTLTITNMQSEDLADYFCLQYSSYLTFGAGTKLELKR
B12: C31 (antibody, human IgG1, kappa, V domains shown)
VH: B11 VH with P16A, N35A, P53L, Y57H, K59M, K63N, L64F, R67K
VL: B11 VL with T76S, L89Q, S93T
B13: C39 (antibody, human IgG1, kappa, V domains shown)
VH: QAYLQQSGAELVRPGASVKMSCKASGYTFTSYNIHWVKQTPRQGLEWIGAIYPGNADISYNQKFRDKATLTVDKSSSTAYMQLSSLTSEDSAVYFCAKPLRIYAMDCWGQGTSVTVSS
VL: DIVMTQSQKFMSTSVGDRVSVTCKASQNVGTNVAWYQQKPGQSPKALIYSASYRYSGVPDRFTGSGSGTDFTLTISNVQSEDLADYFCQQYNSRPLTFGGGTKLEIKR
B14: C36 (antibody, human IgG1, kappa, V domains shown)
VH: QIQLVQSGPELKKPGETVKISCKASGYTFTTYGMSWVKQAPGKGLKWMGWINTYSGVPTYADDFKGRFAFSLETSASNAYLQINNLKNEDTATYFCARELPFTTIIGTKDYWGQGTTLTVSS
VL: DIVLIQSPATLSVTPGDSVSLSCRASQFISNNLHWYQQKSHESPRLLIKYASQSISGIPSRFSGGGSGTDFTLTVNSVETEDFGMYFCQQSNSWPHTFGGGTKLEIKR
B15: C22 (antibody, human IgG1, kappa, V domains shown)
VH: EVQLQQSGPEPVKPGASVKISCKASGYTFTDYNIHWVRQSHGKSLEWIGYIYPYNGGAGYNQKFKSKATLTVDSSSSTAYMELRSLTSEDSAVYYCAREELRRDYGMDYWGQGTSVTVSS
VL: DIQMTQSPASLSASVGETVTITCRASENIYSYLAWYQQKQGKSPQLLVYNAKTLAEGVPSRFSGSGSGTQFSLKINSLQPEDFGSYYCQHHYGTPYTFGGGTKLETKR
B16: C23 (antibody, human IgG1, kappa, V domains shown)
VH: QVQLQQSGPELVKPGTSVKISCKASGYTFTDYYINWVKQRPGQGLEWIGWIFPGSGNTYYNEKFKGRATLTVDKSSSTAYMLLSSLTSEDSAVYFCARDGGLRGPFDYWGQGTTLTVSS
VL: DIQMTQSPSSLSASLGGKVTITCKASQDINKYIAWFQHKPGKGPRLLIHFTSTLQSGIPSRFSGSGSGGDYSFSISNLEPEDIATYYCLQYDYLYTFGGGTTLEIKR
B17: C56-2 (antibody, human IgG1, kappa, V domains shown)
VH: EVQLVESGGGLVKPGGSLKLSCAASGFTFSDYALSWVRQTPEKRLEWVATIRDGGSYTYYSDNEKGRFTISRDNAKNNLYLQMSHLRSEDTAMYYCTRDQVNRGWFTYWGQGTLVTVSA
VL: QVILTQSPAIMSASLGERVTMTCSASSSVSSSYFHWFQQKPGSSPKLWIYSTSNLASGVPPRFSGSGSGTSYSLTISSMEAEDAATYYCHQHHRSPLTFGAGTKLELKR
B18: C59 (antibody, human IgG1, kappa, V domains shown)
VH: B17 VH with D31G, R87K
VL: B17 VL
B19: C145 (antibody, human IgG1, kappa, V domains shown)
VH: EVQLQQSGPEVVKPGASVRISCKASGNTFTDFFINWVKQSHGKSLEWIGDVNPDSNGANYNQKFKGKATLTVDKSSGTAFMGLRSLTSEDSAVYYCATLFFDNWGQGTTLTVSS
VL: B4 VL with S12N, T15A, R24K, T78I, I91L, T99S, R109K
B20: C125 (antibody, human IgG1, kappa, V domains shown)
VH: EVKLVESGGGLVQPGGSLKLSCAASGFTFSSYTMSWVRQTPEKRLELVAELSNSGGSFHYPDNVKGRFTISRDNAKNTLYLQMSSLKSEDTAMYYCARHNWDVYAMDYWGQGTSVTVSS
VL: DIQMSQSPASLSASVGETVTITCRASENVNSYLAWYQQKQGRSPQFLVYNAQTLAEGVPSRFSGGGSGTQFSLKINSLQPEDFGSYYCQHHYGNPTFGGGTKLEIKR

Substitutions are numbered along the chain they refer to.

For the first assay, the target named is T1, human CD112R antigen protein …. Put plainly: SPR (Biacore X100), antibody captured on Protein A chip, huCD112R-His as analyte, 1:1 Langmuir. A general note: SPR reads the build-up and loss of mass on a sensor chip optically.
One may read the Kd as the equilibrium constant for the complex coming apart. Consider B1, for which the Kd came to 0.0392 nM.
For the molecule B2, the affinity, expressed as Kd, was 0.716 nM.
Same read-out and setting: then B3, with 0.222 nM; and B4, with 0.0769 nM.

For the next assay the target is unchanged. Briefly: ELISA, huCD112R-His coated on plate. For orientation: In an ELISA, binding on a coated surface is turned into a signal by an enzyme label.
As usually defined, the EC50 is the concentration that produces a half-maximal response. B1: the EC50 stood at 0.043 nM.
Take B5: it took 0.036 nM to reach a half-maximal effect (EC50).
As to B6, the EC50 came to 0.038 nM.
Consider B2, for which the EC50 was found to be 0.021 nM.
For the molecule B7, a half-maximal effect (EC50) was put at 0.036 nM.
Molecule B3 gave an EC50 of 0.029 nM.
As to B8, the EC50 was 0.052 nM.
B9 had an EC50 of 0.066 nM.
Take B10: the concentration giving a half-maximal response (EC50) is 0.039 nM.
For the molecule B11, the EC50 was 0.049 nM.
In turn, B12 returned a concentration giving a half-maximal response (EC50) of 0.038 nM.
Same read-out and setting: then B13, with 0.691 nM; and B14, with 0.219 nM; and B15, with 0.029 nM.
B16 returned a half-maximal effective concentration (EC50) of 0.06 nM.
On to B17, for which the EC50 was found to be 0.032 nM.
In turn, B18 gave a concentration giving a half-maximal response (EC50) of 0.044 nM.
On the same count and under the same terms, then B4, with 0.035 nM; and B19, with 0.038 nM.
B20 registered a concentration giving a half-maximal response (EC50) of 0.049 nM.

A further assay addresses T2, monkey antigen protein (monkey CD112R, …). Put plainly: ELISA, monkey antigen protein (as Example 6.1).
B1: the midpoint of the response, the EC50, lay at 0.085 nM.
Still for that read-out and setting: then B5, with 0.074 nM; and B6, with 0.104 nM; and B2, with 0.065 nM.
The molecule B7 gave a half-maximal effective concentration (EC50) of 0.074 nM.
B3 gave a concentration for a half-maximal effect (EC50) of 0.034 nM.
The molecule B8 displayed a concentration for a half-maximal effect (EC50) of 0.07 nM.
In turn, B9 yielded a concentration for a half-maximal effect (EC50) of 0.068 nM.
Turning to B10, a half-maximal effect (EC50) was put at 0.06 nM.
Molecule B11 yielded a half-maximal effective concentration (EC50) of 0.054 nM.
As to B12, it took 0.12 nM to reach a half-maximal effect (EC50).
B13 displayed a concentration for a half-maximal effect (EC50) of 0.141 nM.
Consider B14, for which the EC50 turned out to be 0.101 nM.
Regarding B15, a half-maximal effect (EC50) was put at 0.125 nM.
Consider B16, for which a half-maximal response (EC50) required 0.125 nM.
Molecule B17 yielded a 50% effective concentration (EC50) of 0.044 nM.
As to B18, the EC50 worked out at 0.049 nM.
In the case of B4, the EC50 stood at 0.062 nM.
Same read-out and setting: then B19, with 0.042 nM; and B20, with 0.079 nM.

Values taken from patent publication EP4644419A1 (Hangzhou Zhongmeihuadong Pharmaceutical Co., Ltd., dated 2025).
